Measurements as given in US20210317201A1 (Boehringer Ingelheim, published 2021).
Positions count from the first letter of the chain named. In names and notes the source's numbering stands. Several values for one entry are separate records, joined by “and”; a condition that tells them apart may be missing. Equal values may be shown once.

T1: natural human IL-23 from activated THP-1 cells (human, UniProt P29460 23-328)
T1 sequence 1: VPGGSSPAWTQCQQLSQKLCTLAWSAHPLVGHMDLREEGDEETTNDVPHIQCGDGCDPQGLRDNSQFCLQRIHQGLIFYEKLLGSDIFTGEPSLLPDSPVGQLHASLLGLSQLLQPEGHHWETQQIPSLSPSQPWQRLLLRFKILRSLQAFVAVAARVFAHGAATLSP
T1 sequence 2: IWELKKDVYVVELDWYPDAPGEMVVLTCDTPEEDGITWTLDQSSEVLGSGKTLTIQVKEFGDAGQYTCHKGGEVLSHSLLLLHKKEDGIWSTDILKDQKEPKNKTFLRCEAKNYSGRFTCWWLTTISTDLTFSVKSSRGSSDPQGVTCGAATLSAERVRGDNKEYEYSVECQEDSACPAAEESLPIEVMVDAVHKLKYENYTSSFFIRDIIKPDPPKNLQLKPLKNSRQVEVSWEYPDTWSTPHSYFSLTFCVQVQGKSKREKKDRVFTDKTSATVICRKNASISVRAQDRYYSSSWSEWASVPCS

T2: recombinant human IL-23 (human, UniProt P29460 23-328)
T2 sequence 1: T1 sequence 1
T2 sequence 2: T1 sequence 2

T3: Human IL-23 no linker (human, UniProt P29460 23-328)
T3 construct: also called recombinant IL-23 without linker
T3 sequence 1: T1 sequence 1
T3 sequence 2: T1 sequence 2

T4: human IL-12 (human, UniProt P29459 23-219; P29460 23-328)
T4 sequence (looked up) 1: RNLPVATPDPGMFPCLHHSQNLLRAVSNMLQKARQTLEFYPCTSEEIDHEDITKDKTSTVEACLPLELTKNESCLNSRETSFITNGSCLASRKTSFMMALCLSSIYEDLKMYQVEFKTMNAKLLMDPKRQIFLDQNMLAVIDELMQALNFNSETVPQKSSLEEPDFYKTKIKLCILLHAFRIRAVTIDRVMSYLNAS
T4 sequence (looked up) 2: T1 sequence 2

B1: Antibody A (antibody, human IgG1, kappa, L234A L235A, V domains shown)
VH: QVQLVQSGAEVKKPGSSVKVSCKASGYTFTDQTIHWMRQAPGQGLEWIGYIYPRDDSPKYNENFKGKVTITADKSTSTAYMELSSLRSEDTAVYYCAIPDRSGYAWFIYWGQGTLVTVSS
VL: DIQMTQSPSSLSASVGDRVTITCKASRDVAIAVAWYQQKPGKVPKLLIYWASTRHTGVPSRFSGSGSRTDFTLTISSLQPEDVADYFCHQYSSYPFTFGSGTKLEIKR
notes: Humanized 6B8, human IgG1-KO (L234A/L235A) / kappa; also called 6B8-IgG1KO-2 with IgK-66; 6B8CVH-02 / 6B8CVK-66
B2: Antibody D (antibody, human IgG1, kappa, L234A L235A, V domains shown)
VH: B1 VH with Y27F, M37V, I48M, I70L
VL: B1 VL with I48L, Y49F, S60D, R68G, V83L, F87Y, S100Q
notes: Humanized 6B8, human IgG1-KO (L234A/L235A) / kappa; also called 6B8-IgG1KO-5 with IgK-65; 6B8CVH-05 / 6B8CVK-65
B3: Antibody C (antibody, human IgG1, kappa, L234A L235A, V domains shown)
VH: B1 VH
VL: B1 VL with I48L, Y49F, S60D, R68G, V83L, F87Y, S100Q
notes: Humanized 6B8, human IgG1-KO (L234A/L235A) / kappa; also called 6B8-IgG1KO-2 with IgK-65; 6B8CVH-02 / 6B8CVK-65
B4: Antibody B (antibody, human IgG1, kappa, L234A L235A, V domains shown)
VH: B1 VH with Y27F, M37V, I48M, I70L
VL: B1 VL
notes: Humanized 6B8, human IgG1-KO (L234A/L235A) / kappa; also called 6B8-IgG1KO-5 with IgK-66; 6B8CVH-05 / 6B8CVK-66
B5: 34G3 (antibody, V domains shown)
VH: EFQLQQSGPELVKPGASVKISCKASGYSFTDYNMNWVKQSKGKSLEWIGVIIPNYGFTSYNQNFKGKATLTVDQSSSTAHMQLNSVTSEDSAVYYCVRDGGILLWYLDVWGTGTTVTVSS
VL: DVVMTQTPLSLPVSLGDQASISCRSSQSLVHSNGNTYLHWYLQKPGQSPKLLIYKVSNRFSGVPDRFSGSGSGTDFTLKISRVEAEDLGVYFCSQSTHVPYTFGGGTKLEIN
notes: Mouse monoclonal antibody from hybridoma; also called 34G3Vk; 34G3VH
B6: Chimeric 6B8 (antibody, V domains shown)
VH: QVQLQQSDAELVKPGTSVKTSCKISGNTFTDQTIHWMKQRPEQGLEWIGYIYPRDDSPKYNENFKGKATLTADKSSSTAYMQLNSLTSEDSAVYFCAIPDRSGYAWFIYWGQGTLVTVSS
VL: DIVMTQSHKFLSTSVGDRVTITCKASRDVAIAVAWYQQKPGQSPKLLLFWASTRHTGVPDRFTGSGSRTDFTLTISNVQSEDLADYFCHQYSSYPFTFGSGTKLEIK
B7: 9D12 (antibody, V domains shown)
VH: QVQLKESGPVLVAPSQSLSITCTVSGFSLNNFAISWVRQPPGKGLEWLGAIWTGGGTNYNSALKSRLSISKDNSKSQVFLKMNSLQTDDTARYYCVRKDYSYGGAMDYWGQGTSVTVSS
VL: DIALTQSPASLAVSLGQRATISCRASETINFYGTSFMHWYQQKPGQSPKLLIYRASNLESGIPARFSGSGSRTDFTLTINPVEADDVATYYCQQTNEDPYTFGGGTKLEIK
notes: Mouse monoclonal antibody from hybridoma; also called 9D12-Vk; 9D12VH
B8: 34D9 (antibody, V domains shown)
VH: EVQLQQSGPELVKPGASVKIPCKASGYTFTDYNMDWVKKSHGKSLEWIGDINPHNGGTIYNQKFKGKATLTVDKSSSTAHMELRSLTSEDTAVYYCARNYYGSSYGWYFDVWGTGTTVTVSS
VL: DIMMTQSHKFMSTSVGDRVSITCKASQDVGNAVVWYQQKPGQSPKLLIYWASTRHIGVPDRFTGSGSGTDFTLTITNVQSEDLADYFCQQYSSYLTFGAGTKLELK
notes: Mouse monoclonal antibody from hybridoma; also called 34D9Vk; 34D9VH7
B9: Mouse antibody 6B8 (antibody, V domains shown)
VH: B6 VH
VL: B6 VL
notes: Mouse monoclonal antibody from hybridoma; also called Mouse 6B8; 6B8Vk
B10: Chimeric 18E5 (antibody, V domains shown)
VH: EVQLQQSGPELVKPGAAVKMSCKASGYTFTRYLIHWVKQKPGQGLEWIGYINPYNDGTKYNEKFKGKATLTSDKSSSTAYMELSSLTSEDSAVYYCTSNWDLDYWGQGTTLTVSS
VL: DIVMTQSPATLSVTPGDRVSLSCRASQSISDYLYWYQQKSHESPRLLIKFASQSISGIPSRFTGSGSGSDFTLSIDSVEPDDVGVFFCQNGHSFPFTFGGGTKLEIK
B11: antibody C1273 (disclosed in WO 2007/005955) (antibody, V domains shown)
VH: DVNLVESGGGLVKPGGSLKLSCAASGFTFSSYTMSWVRQTPEKRLEWVATISSGGTYTYYPDSVKGRFTISRDNAKNTLYLQMSSLKSEDTAMFYCTRDNHAYDRGPFFDYWGQGATLTVSS
VL: DIVMSQSPSSLVVSVGEKVTMSCKSSQNLFYRSNQKNHLAWYQQKPGQSPTLLIYWTSTRESGVPDRFTGSGSGTDFTLTISRVKAEDLAVYYCQQYYSYPPTFGGGTKLEIK

Target: T5, cynomologous IL-23 (cynomolgus monkey)
T5 construct: also called cynomolgus IL-23; cynomolgus monkey IL-23
Assay: SPR, ProteOn XPR36, global 1:1 fit

Row | Kd [nM] | koff [s⁻¹] | kon [M⁻¹ s⁻¹] | Binder
1 | < 0.001 | – | – | B1
2 | 0.0159 | 3.29e-05 | 2.07e+06 | B2
3 | 0.0029 | 9.36e-06 | 3.23e+06 | B3
4 | < 0.001 | < 1e-06 | 2.99e+06 | B4

Target: T1, natural human IL-23 from activated …
Assay: cell-based or functional assay

Row | IC50, IL-23 stimulated IL-17 production from mouse splenocytes | Binder
5 | 0.001 nM | B1
6 | 0.133 nM and 0.125 nM | B2
7 | 0.016 nM and 0.032 nM | B3
8 | 0.009 nM and 0.008 nM | B4
9 | 0.027 nM and 0.025 nM | B5
10 | 0.005 nM and 0.002 nM and 0.006 nM and 0.003 nM | B6
11 | 0.281 nM and 0.138 nM | B7
12 | 0.456 nM | B8

Target: T2, recombinant human IL-23
Assay: cell-based or functional assay

Row | IC50, IL-23 stimulated IL-17 production from mouse splenocytes | Binder
13 | 0.005 nM and 0.015 nM | B1
14 | 0.236 nM and 0.225 nM and 0.614 nM and 0.458 nM | B2
15 | 0.336 nM | B5
16 | 0.026 nM and 0.037 nM and 0.057 nM | B6
17 | 0.013 nM | B9
18 | 0.031 nM | B10
19 | 0.059 nM | B7
20 | 0.51 nM | B8

Target: T2, recombinant human IL-23
Assay: BLI, Fortebio Octet; hybridoma-derived antibody
Description: Kinetics and binding affinities were measured using the Fortebio OCTET® (Fortebio, Menlo Park, Calif.) using material generated from hybridoma following single column purification.

Row | Kd [nM] | koff [s⁻¹] | kon [M⁻¹ s⁻¹] | Binder
21 | 0.0328 | 3.1e-05 | 918000 | B5
22 | < 0.001 | < 1e-06 | – | B9
23 | < 0.001 | < 1e-06 | – | B7
24 | 0.544 | 1.87e-06 | 3440 | B8

Target: T3, Human IL-23 no linker
Assay: SPR, ProteOn XPR36, global 1:1 fit
Description: B) Affinities were measured for humanized antibodies derived from mouse antibody 6B8.

Row | Kd [nM] | koff [s⁻¹] | kon [M⁻¹ s⁻¹] | Binder
25 | < 0.001 | – | – | B1
26 | 0.135 | 4.93e-05 | 366000 | B2
27 | 0.0363 | 1.65e-05 | 454000 | B3
28 | < 0.001 | < 1e-06 | 517000 | B4
29 | 0.0158 | 5.75e-06 | 360000 | B11
30 | 0.0245 | 1.38e-05 | 557000 | B9

Target: T2, recombinant human IL-23
Assay: cell-based or functional assay
Remark: another data set of the same source

Row | IC50, IL-23 induced STAT3 phosphorylation in human DB cells (phospho-STAT3 ELISA) | Binder
31 | 0.158 nM | B2
32 | 0.132 nM and 0.08 nM | B3
33 | 0.073 nM and 0.084 nM | B4

Target: T4, human IL-12
Assay: cell-based or functional assay

Row | Average pg/ml IFN-γ +/- Standard Deviation, human PHA-derived T cell blasts with 1 ng/ml IL-12 (no antibody: 532 +/- 51; unstimulated: 87 +/- 7) [pg/ml IFN-γ] | Binder
34 | 497 | B1
35 | 539 | B2
36 | 495 | B3
37 | 537 | B4
38 | 523 | B6
39 | 511 | B10
